Results reported in FireProtDB.

Details: for Tm / change of melting temperature, mutant - wild type (higher = more stable): Salmo salar, pH 7.1, Thermal, HEPES 10 mM, NaCl MgCl2 30 mM 3mM
[1] = Homo sapiens, pH 7.4, 25 °C, GdnHCl, CD, PBS, structure 1TIT
[2] = Mus musculus, pH 6.88, 5 °C, Pressure, NMR, Tris 20 mM, reversible: yes, structure 1MBG

Tropomyosin alpha-1 chain G24A, Q91472, sequence (Q91472 entry or part of it G24A | G24A): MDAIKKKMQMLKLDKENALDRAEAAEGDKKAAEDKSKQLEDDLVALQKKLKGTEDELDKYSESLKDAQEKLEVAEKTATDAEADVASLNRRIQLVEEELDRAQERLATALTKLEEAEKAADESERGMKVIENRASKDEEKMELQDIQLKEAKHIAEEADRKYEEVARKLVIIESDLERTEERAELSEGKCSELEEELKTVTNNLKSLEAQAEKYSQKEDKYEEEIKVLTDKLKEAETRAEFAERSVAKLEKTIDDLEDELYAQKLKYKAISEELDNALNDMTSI
Tropomyosin alpha-1 chain G24A|G27A, Q91472 G24A G27A, sequence (Q91472 entry or part of it G24A|G27A | G24A G27A): as the sequence (Q91472 entry or part of it G24A | G24A) above, with G27A counted along it
Transcriptional activator Myb V103L, P06876, sequence (P06876 whole entry V103L): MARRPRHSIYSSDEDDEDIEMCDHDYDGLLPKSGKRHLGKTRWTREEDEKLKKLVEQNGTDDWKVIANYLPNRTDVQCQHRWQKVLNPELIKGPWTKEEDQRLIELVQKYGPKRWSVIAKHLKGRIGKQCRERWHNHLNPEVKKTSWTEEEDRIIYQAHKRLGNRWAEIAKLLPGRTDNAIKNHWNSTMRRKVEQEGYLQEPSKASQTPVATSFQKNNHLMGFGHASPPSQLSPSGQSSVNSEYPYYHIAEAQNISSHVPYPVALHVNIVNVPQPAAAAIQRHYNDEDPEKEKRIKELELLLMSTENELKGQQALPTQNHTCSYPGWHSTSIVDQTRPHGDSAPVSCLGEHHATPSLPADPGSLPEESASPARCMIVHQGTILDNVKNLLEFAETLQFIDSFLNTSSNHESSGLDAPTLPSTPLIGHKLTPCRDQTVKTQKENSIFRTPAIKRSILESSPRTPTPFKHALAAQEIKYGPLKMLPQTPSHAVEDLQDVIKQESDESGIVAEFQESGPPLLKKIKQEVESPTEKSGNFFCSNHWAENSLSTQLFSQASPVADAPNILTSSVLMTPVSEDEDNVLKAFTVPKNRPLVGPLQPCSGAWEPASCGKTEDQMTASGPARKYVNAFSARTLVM
Tropomyosin alpha-1 chain G27A, Q91472, sequence (Q91472 entry or part of it G27A | G27A): as the sequence (Q91472 entry or part of it G24A | G24A) above, with A24G, G27A counted along it
Tropomyosin alpha-1 chain wild type, Q91472, sequence (Q91472 entry or part of it): as the sequence (Q91472 entry or part of it G24A | G24A) above, with A24G counted along it

## Titin V12689A, Q8WZ42
[1]
  ddG of mutation (higher = less stable): 2.37 kcal/mol

## Titin V12762A, Q8WZ42
[1]
  ddG of mutation (higher = less stable): 4.78 kcal/mol

## Transcriptional activator Myb V103L, P06876
[2]
  ddG of mutation (higher = less stable): -0.48 kcal/mol
  unfolding free energy: 1.75 kcal/mol

## Tropomyosin alpha-1 chain G24A, Q91472
CD
  Tm: 36.9 °C
  change of melting temperature, mutant - wild type (higher = more stable): -0.1 °C

## Tropomyosin alpha-1 chain G24A|G27A, Q91472 G24A G27A
CD
  Tm: 38.1 °C
  change of melting temperature, mutant - wild type (higher = more stable): 1.1 °C

## Tropomyosin alpha-1 chain G27A, Q91472
CD
  Tm: 37.3 °C
  change of melting temperature, mutant - wild type (higher = more stable): 0.3 °C

## Tropomyosin alpha-1 chain wild type, Q91472
CD
  Tm: 37 °C

## Twitchin, Q23551 Y4220F
Caenorhabditis elegans, pH 7, 20 °C, Urea, Fluorescence, Sodium phosphate 50 mM, reversible: yes, structure 1WIT
  ddG of mutation (higher = less stable): -2.15 kcal/mol
